Experimental data from article PMC5965250.

Biological target: HyHEL-10 antibody
Assay: SPR; binding affinity of the HEL variants to HyHEL-10; who was immobilised is not shown (Fig. S20)

fold weaker binding affinity than native HEL: 6000 fold
Substance: HEL-K96Nvoc (10) (from UniProt P00698 19-147) (natural protein)
